Source: patent publication US20230390320A1 (RZNOMICS, published 2023)

Experiments:
[1] = molecular target: T1, human PD1 (hPD1) (human, UniProt Q15116 25-288, limits assumed); assay: ELISA; lysate of hPD1-expressing cells coated on plate, scFv from stable 293A culture medium
T1 construct: Stood in the ELISA as a lysate of cells expressing hPD1

[2] = molecular target: T2, mouse PD1 (mPD1) (mouse, UniProt Q02242 25-288, limits assumed); assay: ELISA; lysate of mPD1-expressing cells coated on plate, scFv from stable 293A culture medium
T2 construct: Stood in the ELISA as a lysate of cells expressing mPD1
T2 sequence (looked up): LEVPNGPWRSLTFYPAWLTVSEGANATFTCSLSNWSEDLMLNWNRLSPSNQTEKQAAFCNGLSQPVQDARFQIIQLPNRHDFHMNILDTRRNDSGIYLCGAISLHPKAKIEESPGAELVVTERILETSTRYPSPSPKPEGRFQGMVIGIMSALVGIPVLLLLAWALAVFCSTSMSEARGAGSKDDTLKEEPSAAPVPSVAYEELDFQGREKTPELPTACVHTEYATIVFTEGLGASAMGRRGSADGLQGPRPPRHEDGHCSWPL

T1 sequence (Q15116 25-288 limits assumed): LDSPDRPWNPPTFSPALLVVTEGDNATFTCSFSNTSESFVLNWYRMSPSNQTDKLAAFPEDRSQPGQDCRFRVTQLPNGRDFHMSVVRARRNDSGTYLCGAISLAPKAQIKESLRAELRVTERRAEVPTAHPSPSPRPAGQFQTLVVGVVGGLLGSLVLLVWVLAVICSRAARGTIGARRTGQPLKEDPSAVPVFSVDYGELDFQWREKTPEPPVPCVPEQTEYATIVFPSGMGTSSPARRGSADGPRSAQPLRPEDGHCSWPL

- binding result [1]: binds
- binding result [2]: binds
B1: scFvPD1(I) (scFv, not shown: small tags and cut ends)
scFv: QVQLVQSGAEVKKPGASVKVSCKASGYTFTAQYMHWVRQAPGQGLEWMGIINPSGGETGYAQKFQGRVTMTRDTSTSTVYMELSSLRSEDTAVYYCAKEGVADGYGLVDVWGQGTMVTVSSGGGGSGGGGSGGGGSGGGGSEIVLTQSPATLSLSPGERATLSCRASQSVSSYLAWYQQKPGQAPRLLIYDASKRATGIPARFSGSGSGTDFTLTISSLEPEDFAVYYCDQRNNWPLTFGGGTKVEIK
notes: also called single chain variable fragment PD1; PD1scFv
